Assay results: the RNAGym collection of RNA variant scans (doi:10.7554/elife.80360)

B1: Hairpin Ribozyme (parent)
chain: GUCCUCUUUCACGUGCGCGUGAAAGAGAGAAGUGAACCAGAGAAACACACGUUGUGGUAUAUUACCUGGUA

Variants of: B1
Test: self-cleavage, relative activity (ratio to wild type); higher = more cleavage; co-transcriptional

Row | Variant | self-cleavage
1 | G1U G15U | 0.102
2 | U9G A64U | 0.164
3 | C4G G17A | 0.159
4 | G19U A59G | 0.204
5 | U33A A47G | 0.0897
6 | A11U G54U | 0.565
7 | C3U A39U | 0.253
8 | C6U U63C | 0.167
9 | A39U C66G | 0.135
10 | G17C A64U | 0.176
11 | A28C U58C | 0.545
12 | A47U A64C | 0.0694
13 | G1A A26U | 0.11
14 | G1C U53G | 0.046
15 | A22U C37A | 0.352
16 | C37G G42C | 0.152
17 | C3G C12U | 0.26
18 | U14G A41U | 1.05
19 | U7C G40U | 0.163
20 | C3U U60G | 0.331
21 | G21C A35C | 0.748
22 | G25A C46A | 0.105
23 | A11U A39U | 0.309
24 | A35G A47U | 0.178

Row | Variant | self-cleavage
25 | C4U A24U | 0.295
26 | U58C U60C | 1.19
27 | A35G U62A | 0.368
28 | A11C U70A | 0.877
29 | U7A A36G | 1.03
30 | A41U C65U | 1.19
31 | U8A C12U | 0.747
32 | C37A A47G | 0.0917
33 | U9G G54U | 0.52
34 | C3A G13U | 0.568
35 | U9A G51C | 0.673
36 | C10U G34U | 1.09
37 | G34A A59C | 0.148
38 | C18U G32C | 0.142
39 | C12U A59U | 0.182
40 | U52A G69U | 0.325
41 | A11C A23C | 0.622
42 | C38G U53G | 0.206
43 | A26G C38U | 0.297
44 | G19U A22U | 0.648
45 | U14C G21C | 0.883
46 | A22C A44C | 0.0803
47 | A23G C37A | 0.287
48 | U9G U55G | 0.0748

Row | Variant | self-cleavage
49 | A30G G68C | 0.132
50 | G21U U58A | 0.493
51 | G51U U70C | 1.01
52 | A30C A64C | 0.127
53 | G29C G42C | 0.142
54 | C6A A45U | 0.179
55 | G29A G51U | 0.0861
56 | U55A A64C | 0.13
57 | G1C U9A | 0.117
58 | G19U A71G | 1.02
59 | A39G G68A | 0.0973
60 | U20A A30C | 0.253
61 | A24G U33G | 0.0457
62 | A11U A35G | 0.867
63 | C10G U52A | 0.705
64 | A39G U55C | 0.119
65 | A22G A41G | 0.811
66 | C38U G40U | 0.101
67 | A43G A64G | 0.132
68 | U58C A61C | 0.145
69 | U55A U62G | 0.0995
70 | A35U U52C | 0.811
71 | G34C U62C | 1.1
72 | A23C A39G | 0.248

Row | Variant | self-cleavage
73 | A23G A41U | 1.09
74 | G40A A64U | 0.139
75 | U8A U62C | 0.183
76 | C48A U53A | 0.228
77 | G29U G69U | 0.099
78 | A30C G51C | 0.0477
79 | C4G U9C | 0.274
80 | A24G A47C | 0.245
81 | A41G C66G | 0.255
82 | G17C G19C | 0.68
83 | U2G G25U | 0.359
84 | A22G U60C | 0.899
85 | A11G A61U | 0.136
86 | G21C C37G | 0.425
87 | A26U C38A | 0.188
88 | G21A G40U | 0.151
89 | C46G U60C | 0.0722
90 | A22U C50U | 0.342
91 | U14G U53C | 0.925
92 | U67A G68A | 0.115
93 | U67A G68C | 0.157
94 | U60A C66G | 0.191
95 | C37G A71C | 0.784
96 | C18U A45C | 0.218

Row | Variant | self-cleavage
97 | A22G U55A | 0.318
98 | U5A G29U | 0.0792
99 | A45C G54A | 0.132
100 | G13C C65G | 0.256
101 | A30U U52G | 0.0874
102 | A39C U53A | 0.549
103 | G56C U67A | 0.205
104 | G1U C37G | 0.0694
105 | A22U A31G | 0.589
106 | C10U A45U | 0.111
107 | A23U G68A | 0.184
108 | A23U G68C | 0.139
109 | U8G C46G | 0.128
110 | C10U U33C | 0.0734
111 | A36U C65U | 0.113
112 | A31C C50A | 0.139
113 | U52G A59C | 0.206
114 | C18G U70A | 0.885
115 | G27C G68C | 0.0698
116 | C18G G40A | 0.344
117 | A11G A31C | 0.0862
118 | A36G U53A | 1.2
119 | U14G A45U | 0.147
120 | G15U C46A | 0.167

Row | Variant | self-cleavage
121 | G19C G42C | 0.329
122 | A43G C48U | 0.123
123 | U8C C12G | 0.229
124 | C46U C50A | 0.0957
125 | U33G A64C | 0.0723
126 | C46U A47C | 0.149
127 | A39U U67G | 0.371
128 | A41G A47U | 0.212
129 | G29U C48A | 0.0831
130 | C18G U53C | 0.806
131 | U2A C66G | 0.161
132 | A39C C66U | 0.306
133 | U67C A71U | 0.224
134 | A11C G19C | 0.589
135 | A24U G56U | 0.232
136 | C10G G40U | 0.161
137 | A41C A49C | 0.217
138 | A26G G29A | 0.159
139 | G25U A36C | 0.463
140 | A45G G51C | 0.176
141 | C16U G56C | 0.127
142 | C16G G68A | 0.243
143 | C18U A59G | 0.148
144 | A44U U67A | 0.143

Row | Variant | self-cleavage
145 | G17U A41G | 1.08
146 | G17U A41C | 0.997
147 | C18A A28U | 0.844
148 | G51U G68A | 0.312
149 | U14G C65G | 0.213
150 | A26G U67C | 0.263
151 | U2G C4G | 0.165
152 | A31G A43U | 0.11
153 | U5G A59G | 0.0492
154 | C16U C46U | 0.143
155 | C18U G29C | 0.116
156 | C10U A64U | 0.134
157 | C38U A43G | 0.0885
158 | A26C U70C | 0.728
159 | C3A G57A | 0.131
160 | G40U C46G | 0.136
161 | G15A U33G | 0.136
162 | A30U U63G | 0.0835
163 | G29C A71U | 0.21
164 | G40U A41G | 0.419
165 | C6A U20C | 0.556
166 | U7G A24C | 0.677
167 | U5C C10A | 0.427
